Data as given in patent US20110217237A1 (AbbVie / Abbott, published 2011).
Positions count from the first letter of the chain named.

B1: h38H12.11 (antibody, V domains shown)
VH: EVQLVESGGGVVQPGRSLRLSCAASGFTFSNYGMYWVRQAPGKGLEWVAFISHGGGITYYRDSVKGRFTISRDNSKNTLYLQMNSLRAEDTAVYYCAALNWELGIDYWGQGTMVTVSS
VL: DIQMTQSPSSLSASVGDRVTITCRASEDIYSNLAWYQQKPGKAPKLLIYAANRLQDGVPSRFSGSGSGTDYTLTISSLQPEDFATYYCLQGSKFPLTFGQGTKLEIKR
notes: humanized IgG; also called VH.1b/VL.1b 38H12
B2: h38H12.12 (antibody, V domains shown)
VH: B1 VH
VL: EIVMTQSPATLSVSPGERATLSCRASEDIYSNLAWYQKKPGQSPRLLIYAANRLQDGVPARFSGSGSGTEYTLTISSLQSEDFAVYFCLQGSKFPLTFGQGTKLEIKR
notes: humanized IgG; also called VH.1b/VL.2a 38H12
B3: h38H12.7 (antibody, V domains shown)
VH: B1 VH with V37I, N77S, Y95H
VL: B1 VL
notes: humanized IgG; also called VH.1a/VL.1b 38H12
B4: h38H12.14 (antibody, V domains shown)
VH: B1 VH with V11L, R16G, V37I, N77S, Y95H
VL: B1 VL with Q38K, A43S, Y87F
notes: humanized IgG; also called VH.2a/VL.1a 38H12
B5: h38H12.6 (antibody, V domains shown)
VH: B1 VH with V37I, N77S, Y95H
VL: B1 VL with Q38K, A43S, Y87F
notes: humanized IgG; also called VH.1a/VL.1a 38H12
B6: h38H12.10 (antibody, V domains shown)
VH: B1 VH
VL: B1 VL with Q38K, A43S, Y87F
notes: humanized IgG; also called VH.1b/VL.1a 38H12
B7: h38H12.16 (antibody, V domains shown)
VH: B1 VH with V11L, R16G, V37I, N77S, Y95H
VL: B2 VL
notes: humanized IgG; also called VH.2a/VL.2a 38H12
B8: h38H12.8 (antibody, V domains shown)
VH: B1 VH with V37I, N77S, Y95H
VL: B2 VL
notes: humanized IgG; also called VH.1a/VL.2a 38H12
B9: h38H12.13 (antibody, V domains shown)
VH: B1 VH with V11L, R16G, V37I, N77S, Y95H
VL: B1 VL with Y71F
notes: humanized IgG; also called VH.2a/VL.1 38H12
B10: h38H12.15 (antibody, V domains shown)
VH: B1 VH with V11L, R16G, V37I, N77S, Y95H
VL: B1 VL
notes: humanized IgG; also called VH.2a/VL.1b 38H12
B11: h38H12.5 (antibody, V domains shown)
VH: B1 VH with V37I, N77S, Y95H
VL: B1 VL with Y71F
notes: humanized IgG; also called VH.1a/VL.1 38H12
B12: h38H12.9 (antibody, V domains shown)
VH: B1 VH
VL: B1 VL with Y71F
notes: humanized IgG; also called VH.1b/VL.1 38H12

Molecular target: T1, human DLL4 extracellular domain (human, UniProt Q9NR61 27-529)
T1 construct: purified recombinant ECD; biotin-labelled or 6xHis-tagged depending on the assay; also called huDLL4 ECD; hu DLL4 ECD
T1 sequence (Q9NR61 27-529 limits assumed): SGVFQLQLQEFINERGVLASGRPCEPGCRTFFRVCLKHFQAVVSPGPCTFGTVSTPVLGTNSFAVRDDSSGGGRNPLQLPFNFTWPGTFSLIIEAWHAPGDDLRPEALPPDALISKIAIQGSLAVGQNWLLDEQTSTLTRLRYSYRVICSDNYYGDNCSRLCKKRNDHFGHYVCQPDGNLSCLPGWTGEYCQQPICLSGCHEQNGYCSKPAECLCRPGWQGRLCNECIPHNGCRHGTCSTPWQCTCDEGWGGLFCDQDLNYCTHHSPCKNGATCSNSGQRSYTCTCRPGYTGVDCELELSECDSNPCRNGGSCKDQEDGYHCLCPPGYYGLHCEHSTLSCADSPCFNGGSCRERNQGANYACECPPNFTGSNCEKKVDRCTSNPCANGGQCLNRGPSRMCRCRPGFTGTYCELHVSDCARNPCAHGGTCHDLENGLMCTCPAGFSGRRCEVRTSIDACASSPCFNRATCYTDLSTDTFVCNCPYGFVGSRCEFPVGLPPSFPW
Experiment: capture ELISA, biotin-huDLL4 ECD

Binder | EC50 [nM]
B1 | 0.126
B2 | 0.165
B3 | 0.18
B4 | 0.146
B5 | 0.158
B6 | 0.123
B7 | 0.17
B8 | 0.197
B9 | 0.153
B10 | 0.0904
B11 | 0.202
B12 | 0.116

Molecular target: T1, human DLL4 extracellular domain
Experiment: competition ELISA vs Notch-1 Fc
Procedure: Plates were then washed 3 times with wash buffer (PBS, 0.05% Tween-20) and blocked with 200 μl/well blocking buffer (D-PBS, 1% BSA, 1 mM CaCl₂, 0.05% Tween-20) for 1 hour at 25° C. While blocking, biotin labeled DLL4 extracellular domain (14 nM) was mixed with antibody (30 pM-66 nM, 3-fold serial dilution in blocking buffer) for 1 hour at 25° C. with shaking. Assay plates were washed after blocking, and incubated with DLL4/antibody mixtures (100 μl/well, 1 hour at 25° C. with shaking). Plates were washed again and 100 μl/well streptavidin conjugated with HRP (Fitzgerald #65R-S104PHRPx, diluted 1:5,000 in blocking buffer) was added for 1 hour at 25° C. with shaking. After a final wash, plates were developed using 100 μl/well substrate (TMB Sigma #T8665), and the reaction was stopped using 100 μl/well 1N HCl, and the absorbance was read at 450 nm. Data were analyzed using Graphpad Prism software and IC₅₀ values were reported as the concentration of antibody to achieve 50% reduction of DLL4 bound to Notch1.
Purified variants were further characterized in human Notch-1 competition ELISAs (Example 1.4), which used a format of plating Notch-1 Fc onto ELISA plates and pre-incubating biotinylated human DLL4 plus titrated antibody. Signal was assessed by free biotinylated DLL4 binding to Notch-1 Fc.

Binder | EC50 [nM]
B1 | 3.8
B2 | 3.23
B3 | 12.5
B4 | 5.84
B5 | 27
B6 | 3.9
B7 | 3.77
B8 | 8.31
B9 | 5.29
B10 | 5.71
B11 | 14.8
B12 | 4.16

Molecular target: T2, human DLL4, full length, on cells (human, UniProt Q9NR61 27-685)
T2 sequence (Q9NR61 27-685 limits assumed): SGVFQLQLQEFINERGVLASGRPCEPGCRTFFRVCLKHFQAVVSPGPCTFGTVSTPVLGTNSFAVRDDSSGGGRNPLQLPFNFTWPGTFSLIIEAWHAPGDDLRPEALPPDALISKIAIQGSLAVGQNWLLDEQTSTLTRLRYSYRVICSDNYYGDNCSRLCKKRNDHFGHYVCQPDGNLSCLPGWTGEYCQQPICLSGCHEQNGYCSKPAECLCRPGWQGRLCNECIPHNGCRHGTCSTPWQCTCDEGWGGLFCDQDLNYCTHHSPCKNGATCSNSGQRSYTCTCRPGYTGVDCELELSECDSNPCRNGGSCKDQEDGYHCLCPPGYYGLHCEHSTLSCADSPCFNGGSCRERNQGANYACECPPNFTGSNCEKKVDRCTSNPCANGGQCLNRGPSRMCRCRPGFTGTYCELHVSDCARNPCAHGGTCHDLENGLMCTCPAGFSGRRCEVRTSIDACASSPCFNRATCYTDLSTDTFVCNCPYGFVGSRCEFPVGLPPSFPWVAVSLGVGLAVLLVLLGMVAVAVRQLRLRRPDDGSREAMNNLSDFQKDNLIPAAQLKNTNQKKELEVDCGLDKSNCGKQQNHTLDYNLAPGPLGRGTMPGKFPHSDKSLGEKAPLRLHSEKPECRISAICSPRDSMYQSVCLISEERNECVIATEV
Experiment: cell-based or functional assay

Binder | Notch Reporter Assay EC50 [nM]
B1 | 0.657
B2 | 1.06
B3 | 2.6
B4 | 1.01
B5 | 6.32
B6 | 0.786
B7 | 1.19
B8 | 5.56
B9 | 0.794
B10 | 0.837
B11 | 7.31
B12 | 1.44

Molecular target: T2, human DLL4, full length, on cells
Experiment: FACS, DLL4 cells
Procedure: Stable cell lines overexpressing cell-surface DLL4 were harvested from tissue culture flasks, washed four times and resuspended in phosphate buffered saline (PBS) containing 1% bovine serum albumin and 1 mM CaCl₂ (FACS buffer). 1.5×10⁵ cells were incubated with antibodies at various concentrations in FACS buffer for 60 minutes on ice. […] Following an incubation on ice (4° C., 60 minutes), cells were washed three times and resuspended in FACS buffer. Fluorescence was measured using a Becton Dickinson FACSCalibur-HTS (Becton Dickinson, San Jose, Calif., US). Data were analyzed using Graphpad Prism software and EC₅₀ values were reported as the concentration of antibody to achieve 50% of maximal DLL4 antibodies binding to DLL4 expressing cells.
The good binder variants, as determined by binding ELISA, were assessed by Biacore (Example 1.1) concurrently with cell based assay screens. The KD for human DLL4 was similar for all variants (see, Biacore, KD in Table 18, below).

Binder | EC50 [nM]
B1 | 2.48
B2 | 1.48
B3 | 19.1
B4 | 1.04
B5 | 12.3
B6 | 2.49
B7 | 2.91
B8 | 20
B9 | 2.56
B10 | 2.37
B11 | 77.2
B12 | 3.71

Molecular target: T1, human DLL4 extracellular domain
Experiment: SPR (Biacore)
Procedure: Binding of DLL4 antibodies to a purified recombinant DLL4 extracellular domain (ECD) was determined by surface plasmon resonance-based measurements with a Biacore® instrument (either a Biacore 2000, Biacore 3000, or Biacore T100; GE Healthcare, Piscataway, N.J., US) using running buffer HBS-EPB (10 mM HEPES [pH 7.4], 150 mM NaCl, 3 mM EDTA, 0.1 mg/ml BSA and 0.005% surfactant P20) at 25° C. For example, approximately 9000 RU of goat anti-human Fc specific polyclonal antibody (Thermo Fisher Scientific Inc., Rockford, Ill., US) diluted in 10 mM sodium acetate (pH 4.5) is directly immobilized across a CMS research grade biosensor chip using a standard amine coupling kit according to manufacturer's instructions and procedures at 25 μg/ml. Unreacted moieties on the biosensor surface were blocked with ethanolamine. For kinetic analysis, rate equations derived from the 1:1 Langmuir binding model were fitted simultaneously to multiple antigen injections (using global fit analysis) with the use of Scrubber 2 (BioLogic Software), Biacore Biaevaluation 4.0.1 software or Biacore T100 Evaluation software. Purified antibodies were diluted in running buffer for capture across goat anti-human Fc reaction surfaces. Antibodies to be captured as a ligand (1 μg/ml) were injected over reaction matrices at a flow rate of 10 μl/min. During the assay, all measurements were referenced against the capture surface alone (i.e., with no captured anti-DLL4 antibody). […] The equilibrium dissociation constant KD (M) of the reaction between antibodies and the target antigen was then calculated from the kinetic rate constants by the following formula: KD=Koff/Kₒₙ. Binding was recorded as a function of time and kinetic rate constants were calculated. In this assay, on-rates as fast as 10⁶ M⁻¹s⁻¹ and off-rates as slow as 10⁻⁶ s⁻¹ could be measured.
The good binder variants, as determined by binding ELISA, were assessed by Biacore (Example 1.1) concurrently with cell based assay screens.

Binder | Kd [nM]
B1 | 0.554
B2 | 0.819
B3 | 0.34
B4 | 0.303
B5 | 0.434
B6 | 0.578
B7 | 0.392
B8 | 0.397
B9 | 0.507
B10 | 0.355
B11 | 0.401
B12 | 0.986
